# Measurements published in US20160264649A1.
# Assays:
# Experiment in all cases: cell-based or functional assay
# [1] = target: HIV-1 92RW008 Env (HIV-1)
# [2] = target: HIV-1 Env of isolate 6535.3 (subtype B) (HIV-1)
# [3] = target: HIV-1 Env of isolate 92UG046 (subtype D) (HIV-1)
# [4] = target: HIV-1 Env of isolate 92WR009 (subtype A) (HIV-1)
# [5] = target: HIV-1 Env of isolate 92WR020 (subtype A) (HIV-1)
# [6] = target: HIV-1 Env of isolate 92WR021 (subtype A) (HIV-1)
# [7] = target: HIV-1 Env of isolate 93MW959 (subtype C) (HIV-1)
# [8] = target: HIV-1 Env of isolate 94 KE 105 (subtype AC) (HIV-1)
# [9] = target: HIV-1 Env of isolate 97ZA012 (subtype C) (HIV-1)
# [10] = target: HIV-1 Env of isolate APV_17 (subtype B) (HIV-1)
# [11] = target: HIV-1 Env of isolate CAAN.A2 (subtype B) (HIV-1)
# [12] = target: HIV-1 Env of isolate MG RM-C-024 (subtype C) (HIV-1)
# [13] = target: HIV-1 Env of isolate MGRM-AE-001 (subtype AE) (HIV-1)
# [14] = target: HIV-1 Env of isolate MGRM-AE-002 (subtype AE) (HIV-1)
# [15] = target: HIV-1 Env of isolate MGRM-AE-004 (subtype AE) (HIV-1)
# [16] = target: HIV-1 Env of isolate MGRM-AE-008 (subtype AE) (HIV-1)
# [17] = target: HIV-1 Env of isolate MGRM-Chronic-B-002 (subtype B) (HIV-1)
# [18] = target: HIV-1 Env of isolate MGRM-Chronic-B-008 (subtype B) (HIV-1)
# [19] = target: HIV-1 Env of isolate MGRM-Chronic-B-023 (subtype B) (HIV-1)
# [20] = target: HIV-1 Env of isolate MGRM-Chronic-B-024 (subtype B) (HIV-1)
# [21] = target: HIV-1 Env of isolate MGRM-D-008 (subtype D) (HIV-1)
# [22] = target: HIV-1 Env of isolate MGRM-D-013 (subtype D) (HIV-1)
# [23] = target: HIV-1 Env of isolate MGRM-D-014 (subtype D) (HIV-1)
# [24] = target: HIV-1 Env of isolate MGRM-D-019 (subtype D) (HIV-1)
# [25] = target: HIV-1 Env of isolate MGRM-D-026 (subtype D) (HIV-1)
# [26] = target: HIV-1 Env of isolate MGRM-F1-004 (subtype F) (HIV-1)
# [27] = target: HIV-1 Env of isolate MGRM-F1-012 (subtype F) (HIV-1)
# [28] = target: HIV-1 Env of isolate MGRM-F1-013 (subtype F) (HIV-1)
# [29] = target: HIV-1 Env of isolate MGRM-F1-016 (subtype F) (HIV-1)
# [30] = target: HIV-1 Env of isolate MGRM-F1-018 (subtype F) (HIV-1)
# [31] = target: HIV-1 Env of isolate MGRM-F1-020 (subtype F) (HIV-1)
# [32] = target: HIV-1 Env of isolate PVO.4 (subtype B) (HIV-1)
# [33] = target: HIV-1 Env of isolate THR0.18 (subtype B) (HIV-1)
# [34] = target: HIV-1 Env of isolate TRJ04551.58 (subtype B) (HIV-1)
# [35] = target: HIV-1 Env of isolate TRO.11 (subtype B) (HIV-1)
# [36] = target: HIV-1 Env of isolate VLGCB3 (subtype B) (HIV-1)
# [37] = target: HIV-1 Env of pseudovirus isolate MGRM-G-001 (subtype G) (HIV-1)
# [38] = target: HIV-1 Env of pseudovirus isolate MGRM-G-006 (subtype G) (HIV-1)
# [39] = target: HIV-1 Env of pseudovirus isolate MGRM-G-009 (subtype G) (HIV-1)
# [40] = target: HIV-1 Env of pseudovirus isolate MGRM-G-011 (subtype G) (HIV-1)
# [41] = target: HIV-1 Env of pseudovirus isolate MGRM-G-014 (subtype G) (HIV-1)
# [42] = target: HIV-1 Env of pseudovirus isolate MGRM-G-015 (subtype G) (HIV-1)
# [43] = target: HIV-1 Env of pseudovirus isolate MGRM-G-016 (subtype G) (HIV-1)
# [44] = target: HIV-1 Env of pseudovirus isolate MGRM-G-017 (subtype G) (HIV-1)
# [45] = target: HIV-1 Env of pseudovirus isolate MGRM-G-019 (subtype G) (HIV-1)
# [46] = target: HIV-1 Env of pseudovirus isolate MGRM-G-028 (subtype G) (HIV-1)
substance,measurement,setting,value
PGV04 (antibody),IC50,[1],0.014 µg/mL
same,IC50,[2],0.757 µg/mL
same,IC50 (neutralization),[3],22.4 µg/mL
same,IC50 (pseudovirus neutralization),[4],0.108 µg/mL
same,IC50 (pseudovirus neutralization),[5],0.055 µg/mL
same,IC50 (pseudovirus neutralization),[6],0.038 µg/mL
same,"IC50 (µg/mL), pseudovirus neutralization",[7],> 50 µg/mL
same,IC50 (pseudovirus neutralization),[8],2.98 µg/mL
same,"IC50 (µg/mL), pseudovirus neutralization",[9],0.041 µg/mL
same,IC50,[10],0.309 µg/mL
same,IC50,[11],2.26 µg/mL
same,"IC50 (µg/mL), pseudovirus neutralization",[12],> 50 µg/mL
same,IC50 (pseudovirus neutralization),[13],0.063 µg/mL
same,IC50 (pseudovirus neutralization),[14],0.569 µg/mL
same,IC50 (pseudovirus neutralization),[15],0.183 µg/mL
same,IC50 (pseudovirus neutralization),[16],1.51 µg/mL
same,IC50,[17],0.142 µg/mL
same,IC50,[18],0.166 µg/mL
same,IC50,[19],0.139 µg/mL
same,IC50,[20],2.52 µg/mL
same,IC50 (pseudovirus neutralization),[21],3.56 µg/mL
same,IC50 (pseudovirus neutralization),[22],0.088 µg/mL
same,IC50 (pseudovirus neutralization),[23],0.194 µg/mL
same,IC50 (pseudovirus neutralization),[24],0.35 µg/mL
same,IC50 (pseudovirus neutralization),[25],1.76 µg/mL
same,IC50 (pseudovirus neutralization),[26],0.58 µg/mL
same,IC50 (pseudovirus neutralization),[27],0.25 µg/mL
same,IC50 (pseudovirus neutralization),[28],0.084 µg/mL
same,IC50 (pseudovirus neutralization),[29],0.268 µg/mL
same,IC50 (pseudovirus neutralization),[30],0.027 µg/mL
same,IC50 (pseudovirus neutralization),[31],5.99 µg/mL
same,IC50,[32],0.454 µg/mL
same,"IC50 (µg/mL), pseudovirus neutralization",[33],> 50 µg/mL
same,"IC50 (µg/mL), pseudovirus neutralization",[34],0.028 µg/mL
same,"IC50 (µg/mL), pseudovirus neutralization",[35],0.121 µg/mL
same,"IC50 (µg/mL), pseudovirus neutralization",[36],0.045 µg/mL
same,IC50,[37],> 50 µg/mL
same,IC50,[38],0.083 µg/mL
same,IC50,[39],0.043 µg/mL
same,IC50,[40],0.78 µg/mL
same,IC50,[41],0.056 µg/mL
same,IC50,[42],0.333 µg/mL
same,IC50,[43],0.019 µg/mL
same,IC50,[44],0.065 µg/mL
same,IC50,[45],0.027 µg/mL
same,IC50,[46],0.352 µg/mL
1496_C09 (PG9) (TCN-109) (antibody),IC50,[1],0.006 µg/mL
same,IC50,[2],1.05 µg/mL
same,IC50 (neutralization),[3],1.86 µg/mL
same,IC50 (pseudovirus neutralization),[4],0.05 µg/mL
same,IC50 (pseudovirus neutralization),[5],0.141 µg/mL
same,IC50 (pseudovirus neutralization),[6],0.027 µg/mL
same,"IC50 (µg/mL), pseudovirus neutralization",[7],0.054 µg/mL
same,IC50 (pseudovirus neutralization),[8],37.9 µg/mL
same,"IC50 (µg/mL), pseudovirus neutralization",[9],3.4 µg/mL
same,IC50,[10],34.8 µg/mL
same,IC50,[11],19.3 µg/mL
same,"IC50 (µg/mL), pseudovirus neutralization",[12],0.227 µg/mL
same,IC50 (pseudovirus neutralization),[13],20.6 µg/mL
same,IC50 (pseudovirus neutralization),[14],0.04 µg/mL
same,IC50 (pseudovirus neutralization),[15],0.009 µg/mL
same,IC50 (pseudovirus neutralization),[16],31.5 µg/mL
same,IC50,[17],3.44 µg/mL
same,IC50,[18],8.78 µg/mL
same,IC50,[19],0.027 µg/mL
same,IC50,[20],0.222 µg/mL
same,IC50 (pseudovirus neutralization),[21],11.5 µg/mL
same,IC50 (pseudovirus neutralization),[22],0.021 µg/mL
same,IC50 (pseudovirus neutralization),[23],0.023 µg/mL
same,IC50 (pseudovirus neutralization),[24],0.038 µg/mL
same,IC50 (pseudovirus neutralization),[25],23.7 µg/mL
same,IC50 (pseudovirus neutralization),[26],0.175 µg/mL
same,IC50 (pseudovirus neutralization),[27],0.023 µg/mL
same,IC50 (pseudovirus neutralization),[28],1.25 µg/mL
same,IC50 (pseudovirus neutralization),[29],0.518 µg/mL
same,IC50 (pseudovirus neutralization),[30],0.019 µg/mL
same,IC50 (pseudovirus neutralization),[31],6.4 µg/mL
same,IC50,[32],24.8 µg/mL
same,"IC50 (µg/mL), pseudovirus neutralization",[33],26.4 µg/mL
same,"IC50 (µg/mL), pseudovirus neutralization",[34],0.858 µg/mL
same,"IC50 (µg/mL), pseudovirus neutralization",[35],16.9 µg/mL
same,"IC50 (µg/mL), pseudovirus neutralization",[36],0.022 µg/mL
same,IC50,[37],0.166 µg/mL
same,IC50,[38],1.98 µg/mL
same,IC50,[39],10.7 µg/mL
same,IC50,[40],0.335 µg/mL
same,IC50,[41],16.5 µg/mL
same,IC50,[42],6.6 µg/mL
same,IC50,[43],1.36 µg/mL
same,IC50,[44],0.104 µg/mL
same,IC50,[45],14.6 µg/mL
same,IC50,[46],0.891 µg/mL
VRC01 (antibody),IC50,[1],0.037 µg/mL
same,IC50,[2],1.75 µg/mL
same,IC50 (neutralization),[3],12.7 µg/mL
same,IC50 (pseudovirus neutralization),[4],0.187 µg/mL
same,IC50 (pseudovirus neutralization),[5],0.13 µg/mL
same,IC50 (pseudovirus neutralization),[6],0.066 µg/mL
same,IC50,[7],0.053 µg/mL
same,IC50 (pseudovirus neutralization),[8],0.499 µg/mL
same,IC50,[9],0.088 µg/mL
same,IC50,[10],0.477 µg/mL
same,IC50,[11],0.722 µg/mL
same,IC50,[12],3.4 µg/mL
same,IC50 (pseudovirus neutralization),[13],0.167 µg/mL
same,IC50 (pseudovirus neutralization),[14],0.217 µg/mL
same,IC50 (pseudovirus neutralization),[15],0.187 µg/mL
same,IC50 (pseudovirus neutralization),[16],1.72 µg/mL
same,IC50,[17],0.117 µg/mL
same,IC50,[18],0.155 µg/mL
same,IC50,[19],0.275 µg/mL
same,IC50,[20],0.377 µg/mL
same,IC50 (pseudovirus neutralization),[21],0.854 µg/mL
same,IC50 (pseudovirus neutralization),[22],0.087 µg/mL
same,IC50 (pseudovirus neutralization),[23],0.332 µg/mL
same,IC50 (pseudovirus neutralization),[24],0.119 µg/mL
same,IC50 (pseudovirus neutralization),[25],0.435 µg/mL
same,IC50 (pseudovirus neutralization),[26],0.305 µg/mL
same,IC50 (pseudovirus neutralization),[27],0.488 µg/mL
same,IC50 (pseudovirus neutralization),[28],0.17 µg/mL
same,IC50 (pseudovirus neutralization),[29],0.517 µg/mL
same,IC50 (pseudovirus neutralization),[30],0.032 µg/mL
same,IC50 (pseudovirus neutralization),[31],1.89 µg/mL
same,IC50,[32],0.218 µg/mL
same,IC50,[33],2.46 µg/mL
same,IC50,[34],0.06 µg/mL
same,IC50,[35],0.186 µg/mL
same,IC50,[36],0.108 µg/mL
same,IC50,[37],0.0371 µg/mL
same,IC50,[38],0.055 µg/mL
same,IC50,[39],0.073 µg/mL
same,IC50,[40],0.065 µg/mL
same,IC50,[41],0.056 µg/mL
same,IC50,[42],0.548 µg/mL
same,IC50,[43],0.063 µg/mL
same,IC50,[44],0.124 µg/mL
same,IC50,[45],0.06 µg/mL
same,IC50,[46],0.164 µg/mL
